Results on 16 molecules are retold here after publication PMC12421377, “Molecular basis for the recognition of low-frequency polyadenylation signals by mPSF”.

B1: ACUAAA 12-mer (ssRNA)
RNA: UGCACUAAACAA
B2: CUAUAAA-context UAUAAA 12-mer (ssRNA)
RNA: UGCUAUAAACAA
B3: AAUAUA 12-mer (ssRNA)
RNA: UGCAAUAUACAA
B4: CAUAAA 12-mer (ssRNA)
RNA: UGCCAUAAACAA
B5: AAUACA 12-mer (ssRNA)
RNA: UGCAAUACACAA
B6: AUUAAA 12-mer (ssRNA)
RNA: UGCAUUAAACAA
B7: AAUAAG 12-mer (ssRNA)
RNA: UGCAAUAAGCAA
B8: AAGAAA 12-mer (ssRNA)
RNA: UGCAAGAAACAA
B9: AUUAUA 12-mer (ssRNA)
RNA: UGCAUUAUACAA
B10: AAUGAA 12-mer (ssRNA)
RNA: UGCAAUGAACAA
B11: GAUAAA 12-mer (ssRNA)
RNA: UGCGAUAAACAA
B12: AACAAA 12-mer (ssRNA)
RNA: UGCAACAAACAA
B13: AAUAGA 12-mer (ssRNA)
RNA: UGCAAUAGACAA
B14: AGUAAA 12-mer (ssRNA)
RNA: UGCAGUAAACAA
B15: AAUAAU 12-mer (ssRNA)
RNA: UGCAAUAAUCAA
B16: AAUAAA 12-mer (ssRNA)
RNA: UGCAAUAAACAA

For the first data set, the target named is T1, mPSF (CPSF160-WDR33-CPSF30-Fip1) (human, UniProt Q10570;Q9C0J8;O95639-2;Q6UN15 1-1443;1-572;1-244;1-594). Description: competition fluorescence anisotropy; vs FAM-AAUAAA; 20 mM Tris pH 8.0, 150 mM NaCl, 10 mM DTT, 100 nM BSA, 0.01% NP-40; 45 min on ice, read at room temperature; triplicates. As to conditions: protein: recombinant; copies: 1;1;1;1. (In general: In fluorescence polarisation assays a small probe gives low polarisation when free and higher when bound to something large.)
T1 sequence (Q10570 whole entry, chain 1 of 4): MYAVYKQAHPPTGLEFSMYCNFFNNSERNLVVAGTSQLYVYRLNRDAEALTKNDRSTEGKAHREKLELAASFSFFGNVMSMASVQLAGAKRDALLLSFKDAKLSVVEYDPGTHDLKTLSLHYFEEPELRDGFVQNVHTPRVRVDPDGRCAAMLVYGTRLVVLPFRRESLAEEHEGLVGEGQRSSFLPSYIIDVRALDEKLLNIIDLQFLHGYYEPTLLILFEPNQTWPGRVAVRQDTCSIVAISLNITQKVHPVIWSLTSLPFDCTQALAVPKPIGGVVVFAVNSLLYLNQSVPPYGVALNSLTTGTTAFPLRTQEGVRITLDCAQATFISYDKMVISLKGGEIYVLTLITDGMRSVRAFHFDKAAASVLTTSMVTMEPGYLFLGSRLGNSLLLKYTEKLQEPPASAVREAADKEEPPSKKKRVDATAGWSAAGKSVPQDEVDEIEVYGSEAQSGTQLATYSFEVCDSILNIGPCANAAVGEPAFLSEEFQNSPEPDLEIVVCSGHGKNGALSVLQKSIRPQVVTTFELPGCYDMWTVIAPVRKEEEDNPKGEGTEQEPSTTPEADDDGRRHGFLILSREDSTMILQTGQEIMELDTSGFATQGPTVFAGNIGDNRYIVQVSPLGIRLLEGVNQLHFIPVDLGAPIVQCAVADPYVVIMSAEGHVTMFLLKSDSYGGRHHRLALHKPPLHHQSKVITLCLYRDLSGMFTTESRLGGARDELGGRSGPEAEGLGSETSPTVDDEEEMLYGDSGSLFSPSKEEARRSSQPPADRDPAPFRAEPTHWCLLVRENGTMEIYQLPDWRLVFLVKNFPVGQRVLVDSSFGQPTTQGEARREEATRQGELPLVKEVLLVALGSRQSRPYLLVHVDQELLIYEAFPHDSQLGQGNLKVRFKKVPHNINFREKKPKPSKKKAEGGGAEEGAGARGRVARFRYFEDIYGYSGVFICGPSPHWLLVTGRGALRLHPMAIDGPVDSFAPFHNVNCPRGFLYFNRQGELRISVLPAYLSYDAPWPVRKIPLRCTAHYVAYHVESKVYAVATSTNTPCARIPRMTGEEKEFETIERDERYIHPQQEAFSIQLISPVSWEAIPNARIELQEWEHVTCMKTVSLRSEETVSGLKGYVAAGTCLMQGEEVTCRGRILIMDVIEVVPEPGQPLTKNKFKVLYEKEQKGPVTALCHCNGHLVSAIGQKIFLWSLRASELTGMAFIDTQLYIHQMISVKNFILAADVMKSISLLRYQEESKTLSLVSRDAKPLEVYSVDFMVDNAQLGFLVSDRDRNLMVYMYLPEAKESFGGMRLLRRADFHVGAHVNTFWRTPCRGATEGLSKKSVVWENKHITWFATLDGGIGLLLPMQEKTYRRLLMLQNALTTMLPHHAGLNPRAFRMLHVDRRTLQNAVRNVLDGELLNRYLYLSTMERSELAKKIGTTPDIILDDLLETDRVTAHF
T1 sequence (Q9C0J8 1-572, chain 2 of 4): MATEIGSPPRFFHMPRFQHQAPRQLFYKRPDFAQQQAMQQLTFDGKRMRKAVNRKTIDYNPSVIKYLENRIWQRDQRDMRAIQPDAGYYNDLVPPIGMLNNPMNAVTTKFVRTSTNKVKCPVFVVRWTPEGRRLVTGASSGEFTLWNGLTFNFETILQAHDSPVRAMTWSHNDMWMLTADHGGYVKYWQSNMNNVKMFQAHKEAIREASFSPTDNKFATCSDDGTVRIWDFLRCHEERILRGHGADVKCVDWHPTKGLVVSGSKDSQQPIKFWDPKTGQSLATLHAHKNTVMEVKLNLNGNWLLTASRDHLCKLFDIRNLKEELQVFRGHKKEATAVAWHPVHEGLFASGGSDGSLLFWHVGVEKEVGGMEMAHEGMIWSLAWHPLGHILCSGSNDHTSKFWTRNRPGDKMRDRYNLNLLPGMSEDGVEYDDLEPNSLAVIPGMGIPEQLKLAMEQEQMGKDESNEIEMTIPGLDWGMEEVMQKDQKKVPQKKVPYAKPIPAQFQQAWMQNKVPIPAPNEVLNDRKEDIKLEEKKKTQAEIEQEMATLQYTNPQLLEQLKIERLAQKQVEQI
T1 sequence (O95639 other isoform, or with tags, fused parts or gaps, chain 3 of 4): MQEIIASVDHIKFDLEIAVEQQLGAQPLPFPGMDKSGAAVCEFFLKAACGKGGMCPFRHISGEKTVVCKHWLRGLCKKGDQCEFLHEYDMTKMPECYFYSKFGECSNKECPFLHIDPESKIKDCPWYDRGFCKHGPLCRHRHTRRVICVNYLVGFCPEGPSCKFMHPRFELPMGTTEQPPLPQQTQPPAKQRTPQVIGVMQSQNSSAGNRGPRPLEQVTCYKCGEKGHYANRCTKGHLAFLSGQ
T1 sequence (Q6UN15 whole entry, chain 4 of 4): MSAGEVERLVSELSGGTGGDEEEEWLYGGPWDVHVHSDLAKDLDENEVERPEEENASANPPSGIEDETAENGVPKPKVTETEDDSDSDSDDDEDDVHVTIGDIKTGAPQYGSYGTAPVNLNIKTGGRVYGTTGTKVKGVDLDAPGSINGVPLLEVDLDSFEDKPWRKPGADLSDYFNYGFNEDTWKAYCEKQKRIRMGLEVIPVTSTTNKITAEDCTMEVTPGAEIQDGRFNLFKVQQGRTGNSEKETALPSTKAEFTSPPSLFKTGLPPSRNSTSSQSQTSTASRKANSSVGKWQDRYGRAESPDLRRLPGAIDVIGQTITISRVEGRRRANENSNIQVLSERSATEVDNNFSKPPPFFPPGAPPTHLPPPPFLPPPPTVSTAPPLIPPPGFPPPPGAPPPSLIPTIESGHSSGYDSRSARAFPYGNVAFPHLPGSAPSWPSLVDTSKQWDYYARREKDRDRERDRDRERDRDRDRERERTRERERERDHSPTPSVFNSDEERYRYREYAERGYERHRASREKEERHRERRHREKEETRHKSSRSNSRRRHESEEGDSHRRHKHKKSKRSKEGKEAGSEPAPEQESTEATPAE
With B1, the Kd (usually the constant that tells how readily two partners part at equilibrium) is 2700 nM.
Regarding B2, the equilibrium dissociation constant (Kd) stood at 520 nM.
B3: the Kd was 2500 nM.
On the same count and under the same terms, next, B4: 780 nM.
On to B5, for which the Kd worked out at 2200 nM.
Regarding B6, the Kd is 79 nM.
As for B7, the Kd came out at 11500 nM.
Take B8: the Kd was determined as 1870 nM.
B9: the Kd was determined as 2140 nM.
Turning to B10, the Kd turned out to be 1180 nM.
As for B11, the Kd was 580 nM.
Still for that read-out and setting: next, B12: 13000 nM; B13: 2000 nM.

For the next data set, the target named is T1, mPSF (CPSF160-WDR33-CPSF30-Fip1). Kind of data set: cryo-EM structure (2.5 A); RNA up to 40 uM, mPSF 1.4 uM; 20 mM Tris pH 8.0, 150 mM NaCl, 10 mM DTT, 100 nM BSA, 0.01% NP-40; 45 min on ice, read at room temperature; triplicates. The note with it: protein: recombinant; copies: 1;1;1;1.
In the case of B14, the binding result is reported as “binds”.

The next data set has the same target. Description: cryo-EM structure (3.1 A); RNA up to 40 uM, mPSF 1.4 uM; 20 mM Tris pH 8.0, 150 mM NaCl, 10 mM DTT, 100 nM BSA, 0.01% NP-40; 45 min on ice, read at room temperature; triplicates. As to conditions: protein: recombinant; copies: 1;1;1;1.
Regarding B15, the binding result was “binds”.

For the next data set the target is unchanged. Description: competition fluorescence anisotropy; vs 3 nM FAM-AAUAAA, 30 nM mPSF; 20 mM Tris pH 8.0, 150 mM NaCl, 10 mM DTT, 100 nM BSA, 0.01% NP-40; 45 min on ice, read at room temperature; triplicates. The note with it: protein: recombinant; copies: 1;1;1;1.
With B16, the equilibrium dissociation constant (Kd) worked out at 40 nM.
